Our source for the abundance fitness values is the Human Domainome abundance scans (Beltran et al. 2025).

± gives the uncertainty stated by the source.

A short description of the series: abundance fitness (aPCA) (normalised: wild type 0, dead -1); higher = more abundant; growth selection in yeast, the domain comes from the species named. The conditions noted are these: Homo sapiens.
In the case of “SAFB-like transcription modulator K45S, Q9NWH9”, the abundance fitness was -0.25 ± 0.055.
The substance “SAFB-like transcription modulator K45T, Q9NWH9” yielded an abundance fitness of -0.095 ± 0.053.
The substance “SAFB-like transcription modulator K45V, Q9NWH9” displayed an abundance fitness of -0.399 ± 0.052.
With “SAFB-like transcription modulator K45W, Q9NWH9”, the abundance fitness is -0.293 ± 0.054.
Turning to “SAFB-like transcription modulator K45Y, Q9NWH9”, the abundance fitness is -0.005 ± 0.085.
Next, “SAFB-like transcription modulator K53A, Q9NWH9”: 0.006 ± 0.071.
Next, “SAFB-like transcription modulator K53C, Q9NWH9”: -0.231 ± 0.052; “SAFB-like transcription modulator K53D, Q9NWH9”: -0.931 ± 0.3.
As for “SAFB-like transcription modulator K53E, Q9NWH9”, the abundance fitness was -0.351 ± 0.099.
In turn, “SAFB-like transcription modulator K53F, Q9NWH9” returned an abundance fitness of -0.291 ± 0.06.
Substance “SAFB-like transcription modulator K53G, Q9NWH9” displayed an abundance fitness of -0.35 ± 0.089.
For the substance “SAFB-like transcription modulator K53H, Q9NWH9”, the abundance fitness is -0.039 ± 0.14.
Next, “SAFB-like transcription modulator K53I, Q9NWH9”: -0.369 ± 0.08; “SAFB-like transcription modulator K53M, Q9NWH9”: -0.407 ± 0.12; “SAFB-like transcription modulator K53N, Q9NWH9”: -0.295 ± 0.11.
In turn, “SAFB-like transcription modulator K53P, Q9NWH9” yielded an abundance fitness of -0.778 ± 0.058.
Turning to “SAFB-like transcription modulator K53Q, Q9NWH9”, the abundance fitness is -0.159 ± 0.084.
Next, “SAFB-like transcription modulator K53R, Q9NWH9”: 0.05 ± 0.059; “SAFB-like transcription modulator K53S, Q9NWH9”: -0.141 ± 0.043; “SAFB-like transcription modulator K53T, Q9NWH9”: -0.03 ± 0.084.
As to “SAFB-like transcription modulator K53V, Q9NWH9”, the abundance fitness was -0.184 ± 0.051.
The substance “SAFB-like transcription modulator K53Y, Q9NWH9” yielded an abundance fitness of -0.517 ± 0.18.
For “SAFB-like transcription modulator L25A, Q9NWH9”, the abundance fitness is -0.385 ± 0.032.
Substance “SAFB-like transcription modulator L25D, Q9NWH9” yielded an abundance fitness of -0.665 ± 0.054.
“SAFB-like transcription modulator L25E, Q9NWH9” showed an abundance fitness of -0.308 ± 0.1.
With “SAFB-like transcription modulator L25F, Q9NWH9” the figure was -0.312 ± 0.061.
Next, “SAFB-like transcription modulator L25G, Q9NWH9”: -0.715 ± 0.071; “SAFB-like transcription modulator L25H, Q9NWH9”: -0.732 ± 0.16.
The substance “SAFB-like transcription modulator L25I, Q9NWH9” returned an abundance fitness of -0.467 ± 0.11.
Substance “SAFB-like transcription modulator L25K, Q9NWH9” registered an abundance fitness of -0.407 ± 0.11.
Next, “SAFB-like transcription modulator L25M, Q9NWH9”: -0.768 ± 0.045; “SAFB-like transcription modulator L25N, Q9NWH9”: -0.172 ± 0.18; “SAFB-like transcription modulator L25P, Q9NWH9”: -0.718 ± 0.071.
Turning to “SAFB-like transcription modulator L25Q, Q9NWH9”, the abundance fitness is -0.181 ± 0.31.
In the case of “SAFB-like transcription modulator L25R, Q9NWH9”, the abundance fitness was -0.663 ± 0.05.
On to “SAFB-like transcription modulator L25S, Q9NWH9”, for which the abundance fitness is -0.745 ± 0.077.
With “SAFB-like transcription modulator L25T, Q9NWH9” the figure was -0.536 ± 0.063; with “SAFB-like transcription modulator L25V, Q9NWH9”, -0.748 ± 0.061.
“SAFB-like transcription modulator L25W, Q9NWH9” yielded an abundance fitness of -0.219 ± 0.055.
For the substance “SAFB-like transcription modulator L30A, Q9NWH9”, the abundance fitness was -0.581 ± 0.035.
“SAFB-like transcription modulator L30C, Q9NWH9” came in with an abundance fitness of -0.497 ± 0.083.
“SAFB-like transcription modulator L30D, Q9NWH9” gave an abundance fitness of -0.65 ± 0.083.
Next, “SAFB-like transcription modulator L30E, Q9NWH9”: -0.6 ± 0.05; “SAFB-like transcription modulator L30F, Q9NWH9”: -0.706 ± 0.055.
On to “SAFB-like transcription modulator L30H, Q9NWH9”, for which the abundance fitness is -0.902 ± 0.17.
“SAFB-like transcription modulator L30I, Q9NWH9”: the abundance fitness is -0.129 ± 0.067.
Next, “SAFB-like transcription modulator L30K, Q9NWH9”: -1.33 ± 0.27.
“SAFB-like transcription modulator L30N, Q9NWH9”: the abundance fitness was -0.267 ± 0.19.
Next, “SAFB-like transcription modulator L30P, Q9NWH9”: -0.716 ± 0.067; “SAFB-like transcription modulator L30Q, Q9NWH9”: -0.959 ± 0.17.
Turning to “SAFB-like transcription modulator L30R, Q9NWH9”, the abundance fitness was -0.949 ± 0.056.
“SAFB-like transcription modulator L30S, Q9NWH9” came in with an abundance fitness of -0.776 ± 0.058.
Substance “SAFB-like transcription modulator L30T, Q9NWH9” had an abundance fitness of -0.936 ± 0.11.
The substance “SAFB-like transcription modulator L30V, Q9NWH9” came in with an abundance fitness of -0.295 ± 0.05.
With “SAFB-like transcription modulator L30W, Q9NWH9”, the abundance fitness is -0.748 ± 0.098.
“SAFB-like transcription modulator L30Y, Q9NWH9” displayed an abundance fitness of -1 ± 0.13.
“SAFB-like transcription modulator L34A, Q9NWH9” had an abundance fitness of -0.767 ± 0.092.
Turning to “SAFB-like transcription modulator L34C, Q9NWH9”, the abundance fitness was -0.496 ± 0.1.
For “SAFB-like transcription modulator L34D, Q9NWH9”, the abundance fitness is -0.414 ± 0.12.
“SAFB-like transcription modulator L34E, Q9NWH9” showed an abundance fitness of -0.594 ± 0.087.
Consider “SAFB-like transcription modulator L34F, Q9NWH9”, for which the abundance fitness is -0.945 ± 0.2.
In the case of “SAFB-like transcription modulator L34G, Q9NWH9”, the abundance fitness is -0.829 ± 0.043.
Take “SAFB-like transcription modulator L34H, Q9NWH9”: the abundance fitness is -0.465 ± 0.38.
In turn, “SAFB-like transcription modulator L34I, Q9NWH9” registered an abundance fitness of -1 ± 0.31.
Substance “SAFB-like transcription modulator L34K, Q9NWH9” came in with an abundance fitness of -0.864 ± 0.078.
“SAFB-like transcription modulator L34M, Q9NWH9” registered an abundance fitness of -0.678 ± 0.1.
On to “SAFB-like transcription modulator L34N, Q9NWH9”, for which the abundance fitness is -0.964 ± 0.45.
As for “SAFB-like transcription modulator L34P, Q9NWH9”, the abundance fitness is -0.8 ± 0.084.
With “SAFB-like transcription modulator L34Q, Q9NWH9” the figure was -0.673 ± 0.057; with “SAFB-like transcription modulator L34R, Q9NWH9”, -0.969 ± 0.069.
Substance “SAFB-like transcription modulator L34S, Q9NWH9” yielded an abundance fitness of -0.778 ± 0.038.
The substance “SAFB-like transcription modulator L34T, Q9NWH9” had an abundance fitness of -0.831 ± 0.067.
Turning to “SAFB-like transcription modulator L34V, Q9NWH9”, the abundance fitness is -0.614 ± 0.068.
Next, “SAFB-like transcription modulator L34W, Q9NWH9”: -1.01 ± 0.057; “SAFB-like transcription modulator L39A, Q9NWH9”: -0.498 ± 0.069; “SAFB-like transcription modulator L39C, Q9NWH9”: -0.446 ± 0.079.
With “SAFB-like transcription modulator L39D, Q9NWH9” the figure was -0.755 ± 0.075; with “SAFB-like transcription modulator L39E, Q9NWH9”, -0.365 ± 0.054.
The substance “SAFB-like transcription modulator L39F, Q9NWH9” came in with an abundance fitness of -0.409 ± 0.077.
For the substance “SAFB-like transcription modulator L39G, Q9NWH9”, the abundance fitness was -0.475 ± 0.045.
Regarding “SAFB-like transcription modulator L39H, Q9NWH9”, the abundance fitness is -0.275 ± 0.081.
With “SAFB-like transcription modulator L39I, Q9NWH9” the figure was -0.231 ± 0.074; with “SAFB-like transcription modulator L39K, Q9NWH9”, -0.179 ± 0.046; with “SAFB-like transcription modulator L39M, Q9NWH9”, 0.017 ± 0.047.
“SAFB-like transcription modulator L39N, Q9NWH9” registered an abundance fitness of -0.596 ± 0.12.
“SAFB-like transcription modulator L39P, Q9NWH9” displayed an abundance fitness of -0.81 ± 0.067.
For “SAFB-like transcription modulator L39Q, Q9NWH9”, the abundance fitness was -0.499 ± 0.11.
“SAFB-like transcription modulator L39R, Q9NWH9” came in with an abundance fitness of -0.296 ± 0.05.
As to “SAFB-like transcription modulator L39T, Q9NWH9”, the abundance fitness was -0.631 ± 0.043.
For “SAFB-like transcription modulator L39V, Q9NWH9”, the abundance fitness was -0.356 ± 0.059.
“SAFB-like transcription modulator L39W, Q9NWH9” returned an abundance fitness of -0.591 ± 0.084.
